Three proteins from paper PMC7049728, “The full-length structure of Thermus scotoductus OLD defines the ATP hydrolysis properties and catalytic mechanism of Class 1 OLD family nucleases” (Nucleic Acids Research, 2020) can be followed below.

In general, stoichiometry N refers to a count of units in the complex or per binding partner. The Km is the concentration of substrate that gives half-maximal velocity. As a reminder, the kcat is the maximal rate divided by the concentration of active sites.

Data set [1] deals with the molecule itself. The experiment in a line: SEC-MALS; 4 mg/ml loaded on Superdex 200 10/300 Increase; 20 mM HEPES pH 7.5, 150 mM KCl, 5 mM MgCl2, 1 mM DTT; 0.7 ml/min; Ts^FL also in different nucleotide states. (In gel filtration, larger molecules generally elute earlier.)
Substrate in data set [2]: Nc1ncnc2c1ncn2[C@@H]1O[C@H](COP(=O)(O)OP(=O)(O)OP(=O)(O)O)[C@@H](O)[C@H]1O
The data set can be described thus: Malachite green phosphate release ATPase assay. Conditions: 65°C, 20 mM Tris-HCl pH 8, 50 mM NaCl, 5 mM MgCl2, no DNA (basal). Type of data set: biochemical, Thermus scotoductus.

B1: Thermus scotoductus OLD N-terminal region (residues 1-369) (domain or fragment, UniProt E8PLM2 1-369, looked up)
chain: MLKRLQVKNFRCLEDIDLPLGPLTAIVGPNGAGKTTILRAIDLVLGDVWPSLRSFRIPQDFINFDTTRAIEITVHFDPPYTQGSFNITAFRLTCKGEDADFHVDLEPLDEGGNVPRYPSGNPLRVGTDMRNHARVLFLDHRRNLAQHLPSIRGSILGRLLQPVRREFKLQDNFKQVYEQAMDLLRTEQVKQIEKTIAETAKQMLGFLGKDAMKSMEIGFGFADPANPFNSLRLQYRESDLTLPGDELGLGIQSAIVVGIFEAFRQLGEKIGTVIIEEPEMYLHPQAQRYFYRLLCEMADKDQCQIIYSTHSPIFADVNRFEALRLVRKDRDDRVVVSYVREEDKSALDNVRNRFKLGGRFDTARNEVLF
notes: Thermus scotoductus OLD, UniProt E8PLM2, N-terminal region encompassing the ATPase domain, residues 1-369; in pET21b; also called Ts^NTR; NTR; source: E. coli BL21(DE3), purified (65°C heat step, nickel column, HiTrap Q, SEC)
As to B1, the “stoichiometry N” value in data set [1] is 2.

B2: Ts OLD (Ts^FL) (Thermus scotoductus SA-01) (protein)
chain: MLKRLQVKNFRCLEDIDLPLGPLTAIVGPNGAGKTTILRAIDLVLGDVWPSLRSFRIPQDFINFDTTRAIEITVHFDPPYTQGSFNITAFRLTCKGEDADFHVDLEPLDEGGNVPRYPSGNPLRVGTDMRNHARVLFLDHRRNLAQHLPSIRGSILGRLLQPVRREFKLQDNFKQVYEQAMDLLRTEQVKQIEKTIAETAKQMLGFLGKDAMKSMEIGFGFADPANPFNSLRLQYRESDLTLPGDELGLGIQSAIVVGIFEAFRQLGEKIGTVIIEEPEMYLHPQAQRYFYRLLCEMADKDQCQIIYSTHSPIFADVNRFEALRLVRKDRDDRVVVSYVREEDKSALDNVRNRFKLGGRFDTARNEVLFAKRALLVEGYGDRVAALQLFNQLEVDPDAECIAVVDCGGKAGIELIVGVCKALDIPFVVVHDEDVWPIDERADEETRRKQEQENKAEQEKNQRIQACAGAERVFVVQPSLEAALGIGRNASDKPYRIAEILKTVDVGQPPDALRPFVEAIRQVTRP
notes: full-length, residues 1-525, C-terminal 6xHis tag (pET21b), codon-optimized, expressed in E. coli BL21(DE3); homodimer
Consider B2, for which, in data set [2], the Km turned out to be 180 ± 26 µM and the kcat came to 0.00733 ± 0.005 s⁻¹.

B3: full-length Thermus scotoductus OLD (enzyme, UniProt E8PLM2 1-528, looked up)
chain: MLKRLQVKNFRCLEDIDLPLGPLTAIVGPNGAGKTTILRAIDLVLGDVWPSLRSFRIPQDFINFDTTRAIEITVHFDPPYTQGSFNITAFRLTCKGEDADFHVDLEPLDEGGNVPRYPSGNPLRVGTDMRNHARVLFLDHRRNLAQHLPSIRGSILGRLLQPVRREFKLQDNFKQVYEQAMDLLRTEQVKQIEKTIAETAKQMLGFLGKDAMKSMEIGFGFADPANPFNSLRLQYRESDLTLPGDELGLGIQSAIVVGIFEAFRQLGEKIGTVIIEEPEMYLHPQAQRYFYRLLCEMADKDQCQIIYSTHSPIFADVNRFEALRLVRKDRDDRVVVSYVREEDKSALDNVRNRFKLGGRFDTARNEVLFAKRALLVEGYGDRVAALQLFNQLEVDPDAECIAVVDCGGKAGIELIVGVCKALDIPFVVVHDEDVWPIDERADEETRRKQEQENKAEQEKNQRIQACAGAERVFVVQPSLEAALGIGRNASDKPYRIAEILKTVDVGQPPDALRPFVEAIRQVTRPMEE
notes: Thermus scotoductus OLD (Class 1 OLD family nuclease), UniProt E8PLM2, full-length, residues 1-525; codon-optimised synthetic gene in pET21b; Dimer by SEC-MALS and by crystal symmetry; The crystal model holds residues 1-142, 149-237 and 245-525; also called Ts^FL; Ts OLD; source: E. coli BL21(DE3), purified (65°C heat step, nickel column, HiTrap Q, SEC)
Regarding B3, the “stoichiometry N” value in data set [1] turned out to be 2.
